From the supplement of paper PMC7877785
± gives the uncertainty stated by the source.

Assay: self-splicing fitness, log relative to wild type (ln ratio); higher = more splicing; Tetrahymena group I intron in knt gene, E. coli kanamycin selection, DiMSum; sequences stand for … in CUCUCU…GGAGGGAAAAGUUAUCAGGCAUGCACCUGGUAGCUAGUCUUUAAACCAAUAGAUUGCAUCGGUUUAAAAGGCAAGACCGUCAAAUUGCGGGAAAGGGGUCAACAGCCGUUCAGUACCAAGUCUCAGGGGAAACUUUGAGAUGGCCUUGCAAAGGGUAUGGUAAUAAGCUGACGGACAUGGUCCUAACCACGCAGCCAAGUCCUAAGUCAACAGAUCUUCUGUUGAUAUGGAUGCAGUUCACAGACUAAAUGUCGGUCGGGGAAGAUGUAUUCUUCUCAUAAGAUAUAGUCGGACCUCUCCUUAAUGGGAGCUAGCGGAUGAAGUGAUGCAACACUGGAGCCGCUGGGAACUAAUUUGUAUGCGAAAGUAUAUUGAUUAGUUUUGGAGUACUCGUGGUCG
In short: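 DiMSum derived fitness as the error-weighted combination of fold changes across replicates, kanamycin versus no kanamycin, normalised to wild type. E. coli BL21(DE3) held the library, which randomised all eight P1ex-region intron nucleotides within the knt kanamycin-resistance gene on pET-22b(+). Six replicate transformations grew overnight at 37°C or 30°C on LB agar with or without 25 μg/mL kanamycin, also containing 100 μg/mL carbenicillin, 50 μM IPTG and 0.2% rhamnose, and pooled colonies were amplicon-sequenced on an Illumina HiSeq 2500.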

Row | Sequence | self-splicing fitness (ln) (30 °C) | self-splicing fitness (ln) (37 °C)
1 | GUGCAGCAAUAUUACGCUCU | -1.77 ± 0.14 | -0.404 ± 0.15
2 | GUGCAGCAAUAUUACGCUGA | -2.38 ± 0.17 | -1.6 ± 0.16
3 | GUGCAGCAAUAUUACGGAUC | 0.0925 ± 0.13 | 0.198 ± 0.14
4 | GUGCAGCAAUAUUACGGCCG | -1.8 ± 0.26 | -1.12 ± 0.3
5 | GUGCAGCAAUAUUACGGCUU | -0.306 ± 0.052 | -0.128 ± 0.072
6 | GUGCAGCAAUAUUACGGGUA | -2.35 ± 0.1 | -2.12 ± 0.12
7 | GUGCAGCAAUAUUACGGGUG | -3.36 ± 0.12 | -1.87 ± 0.12
8 | GUGCAGCAAUAUUACGUACA | – | -2.03 ± 0.34
9 | GUGCAGCAAUAUUACGUAUA | -1.42 ± 0.073 | 0.0392 ± 0.069
10 | GUGCAGCAAUAUUACGUAUC | -1.69 ± 0.13 | -1.79 ± 0.13
11 | GUGCAGCAAUAUUACGUUAG | -2.62 ± 0.14 | -0.353 ± 0.11
12 | GUGCAGCAAUAUUACGUUGC | -3.82 ± 0.31 | -2.93 ± 0.31
13 | GUGCAGCAAUAUUACGUUUC | -3.02 ± 0.11 | -0.289 ± 0.11
14 | GUGGAGCAAUAUUACGAAUG | -3.75 ± 0.4 | -1.77 ± 0.37
15 | GUGGAGCAAUAUUACGAGAG | -3.58 ± 0.22 | -2.7 ± 0.38
16 | GUGGAGCAAUAUUACGAGCU | -3.17 ± 0.26 | -2.01 ± 0.28
17 | GUGGAGCAAUAUUACGAUAU | -1.83 ± 0.17 | -0.975 ± 0.15
18 | GUGGAGCAAUAUUACGAUCG | – | -3.31 ± 0.47
19 | GUGGAGCAAUAUUACGAUUA | -2.1 ± 0.48 | -1.68 ± 0.34
20 | GUGGAGCAAUAUUACGAUUG | -1.98 ± 0.39 | –
21 | GUGGAGCAAUAUUACGCAGG | – | -1.19 ± 0.28
22 | GUGGAGCAAUAUUACGCAUC | – | -2.03 ± 0.41
23 | GUGGAGCAAUAUUACGCAUU | -2.84 ± 0.22 | -1.14 ± 0.13
24 | GUGGAGCAAUAUUACGCGAG | – | -1.53 ± 0.38
25 | GUGGAGCAAUAUUACGGAAU | -3.23 ± 0.16 | -1.33 ± 0.17
26 | GUGGAGCAAUAUUACGGAUU | -3.15 ± 0.47 | –

Row | Sequence | self-splicing fitness (ln) (30 °C) | self-splicing fitness (ln) (37 °C)
27 | GUGGAGCAAUAUUACGGGUG | -3.8 ± 0.37 | -2.9 ± 0.47
28 | GUGGAGCAAUAUUACGGUAC | -2.81 ± 0.14 | -1.71 ± 0.15
29 | GUGGAGCAAUAUUACGGUAU | -2.04 ± 0.23 | -1.71 ± 0.27
30 | GUGGAGCAAUAUUACGUAGG | -3.17 ± 0.29 | -0.82 ± 0.24
31 | GUGGAGCAAUAUUACGUCCU | -1.24 ± 0.14 | -0.219 ± 0.14
32 | GUGGAGCAAUAUUACGUGGA | -2.92 ± 0.28 | -3.07 ± 0.36
33 | GUGUAGCAAUAUUACGAACA | -1.66 ± 0.16 | -0.829 ± 0.12
34 | GUGUAGCAAUAUUACGACUU | -0.0355 ± 0.15 | -0.00223 ± 0.19
35 | GUGUAGCAAUAUUACGAGGG | -3.38 ± 0.44 | -2.99 ± 0.47
36 | GUGUAGCAAUAUUACGAGUA | – | -1.56 ± 0.19
37 | GUGUAGCAAUAUUACGAGUU | -2.8 ± 0.15 | -1.39 ± 0.11
38 | GUGUAGCAAUAUUACGAUGG | -2.91 ± 0.19 | -1.81 ± 0.18
39 | GUGUAGCAAUAUUACGCCAC | – | -1.07 ± 0.48
40 | GUGUAGCAAUAUUACGCUAU | – | -1.15 ± 0.24
41 | GUGUAGCAAUAUUACGCUGG | -3.59 ± 0.38 | -1.54 ± 0.22
42 | GUGUAGCAAUAUUACGGAGA | – | -2.36 ± 0.45
43 | GUGUAGCAAUAUUACGGAGU | -2.96 ± 0.17 | -2.61 ± 0.29
44 | GUGUAGCAAUAUUACGGAUG | -3.29 ± 0.41 | -0.59 ± 0.35
45 | GUGUAGCAAUAUUACGGCCU | -0.169 ± 0.073 | 0.685 ± 0.098
46 | GUGUAGCAAUAUUACGGCUC | -0.377 ± 0.064 | 0.195 ± 0.077
47 | GUGUAGCAAUAUUACGGCUU | -0.494 ± 0.078 | 0.195 ± 0.11
48 | GUGUAGCAAUAUUACGGGCA | -0.665 ± 0.18 | -1.29 ± 0.19
49 | GUGUAGCAAUAUUACGGGGG | -3.23 ± 0.41 | -2.07 ± 0.43
50 | GUGUAGCAAUAUUACGGUCA | -1.36 ± 0.14 | -2.06 ± 0.12
51 | GUGUAGCAAUAUUACGGUGA | -1.45 ± 0.11 | -0.916 ± 0.14
52 | GUGUAGCAAUAUUACGGUUU | -1.04 ± 0.086 | -0.738 ± 0.11
